Reference: paper PMC8754639

T1: DHX36 (RHAU) (UniProt Q9H2U1 1-1008)
T1 sequence: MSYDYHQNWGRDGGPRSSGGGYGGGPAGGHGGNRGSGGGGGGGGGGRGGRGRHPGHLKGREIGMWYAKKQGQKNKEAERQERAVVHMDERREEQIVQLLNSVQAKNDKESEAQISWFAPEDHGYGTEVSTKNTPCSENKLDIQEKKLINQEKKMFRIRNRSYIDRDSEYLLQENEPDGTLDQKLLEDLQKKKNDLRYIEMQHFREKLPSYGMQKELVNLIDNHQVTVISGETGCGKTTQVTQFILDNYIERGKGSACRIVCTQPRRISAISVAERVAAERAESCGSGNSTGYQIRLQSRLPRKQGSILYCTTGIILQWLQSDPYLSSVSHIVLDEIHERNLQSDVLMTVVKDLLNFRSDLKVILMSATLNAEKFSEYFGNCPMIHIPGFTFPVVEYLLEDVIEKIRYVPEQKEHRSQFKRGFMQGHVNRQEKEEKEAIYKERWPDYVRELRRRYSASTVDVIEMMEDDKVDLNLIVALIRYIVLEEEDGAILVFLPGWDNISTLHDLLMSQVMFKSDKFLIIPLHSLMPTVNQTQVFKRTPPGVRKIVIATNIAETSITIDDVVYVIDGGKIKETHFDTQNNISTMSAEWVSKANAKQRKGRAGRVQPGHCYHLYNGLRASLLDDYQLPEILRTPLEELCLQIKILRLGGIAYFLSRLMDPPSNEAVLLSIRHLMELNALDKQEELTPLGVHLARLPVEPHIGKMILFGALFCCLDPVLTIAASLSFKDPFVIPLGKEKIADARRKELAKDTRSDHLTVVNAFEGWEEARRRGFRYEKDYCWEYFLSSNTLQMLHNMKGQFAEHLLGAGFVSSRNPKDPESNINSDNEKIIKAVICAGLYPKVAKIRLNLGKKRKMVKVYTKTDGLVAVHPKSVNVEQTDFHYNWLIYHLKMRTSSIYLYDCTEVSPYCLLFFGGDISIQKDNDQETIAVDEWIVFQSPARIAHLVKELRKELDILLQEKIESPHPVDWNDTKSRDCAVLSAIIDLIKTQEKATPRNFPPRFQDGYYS

T2: NONO (53-312) (UniProt Q15233 53-312)
T2 sequence: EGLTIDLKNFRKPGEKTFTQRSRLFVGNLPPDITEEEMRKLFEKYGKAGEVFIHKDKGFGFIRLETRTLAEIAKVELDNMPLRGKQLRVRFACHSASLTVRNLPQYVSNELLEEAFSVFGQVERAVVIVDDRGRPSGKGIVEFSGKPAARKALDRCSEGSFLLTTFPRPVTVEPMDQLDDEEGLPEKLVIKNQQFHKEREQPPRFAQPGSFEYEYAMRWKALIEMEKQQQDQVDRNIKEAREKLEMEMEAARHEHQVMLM

T3: RHAU53 peptide (UniProt Q9H2U1 53-105)
T3 sequence: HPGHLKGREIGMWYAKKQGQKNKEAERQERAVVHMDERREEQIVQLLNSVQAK


How the values were obtained:
[1] = molecular target: T1, DHX36 (RHAU); assay: MST
[2] = molecular target: T2, NONO (53-312); assay: EMSA
[3] = molecular target: T3, RHAU53 peptide; assay: MST competition
[4] = molecular target: T2, NONO (53-312); assay: filter binding

Binder	Kd [1] [nM]	Kd [2] [nM]	IC50 [3] [nM]	binding result [4]
AGGGUGGGCUUUUGUUGAUGAGGGAGGGGA (structured_RNA) [MALAT1 rG4_04 (FAM)]	130 ± 16	46.9 ± 12.1	621 ± 95.3	
AGGGGAGGGAAAGGGGGAAAGCGGGC (structured_RNA) [MALAT1 rG4_09 (FAM)]		80.9 ± 18.1		
AGAAGAGAGAAAGAAAGAAAGCGAGC (ssRNA) [MALAT1 rG4_09 MUT (biotin)]				no binding
